Test results from patent US20200347144A1 (SHANGHAI HYAMAB BIOTECH, published 2020).

What was measured:
[1] = target: T1, human 4-1BB, full length, on transfected cells (human, UniProt Q07011 24-255); assay: FACS, CHOK1-h4-1BB cells; Ab 10 ug/ml
T1 construct: whole, on cells; also called CHOK1-h4-1BB
From the text: (§1) The pIRES plasmid carrying the full-length gene of monkey-derived […] (the preparation method is the same as the preparation method of the pCpC vector carrying the human-derived IgG Fc fragment (hFc) in “Preparation of immunogen A” of the step (1) in Example 1, in which the database accession number of the amino acid sequence of the extracellular region of monkey 4-1BB protein (Phe19-Thr239) is G7PSE7) was transfected into CHOK1 cell line to obtain CHOK1 stable transfected cell line containing monkey 4-1BB (herein referred to as CHOK1-c4-1BB stable cell line). The CHOK1-h4-1BB stable cell line and the CHOK1-c4-1BB stable cell line were expanded and cultivated to 90% confluence in T-75 cell culture flasks. The medium was exhausted, and washed twice with HBSS buffer (Hanks Balanced Salt Solution, purchased from Invitrogen), and then the cells were treated and collected with enzyme-free cell dissociation solution (Versene solution, purchased from Life Technology). The cells were washed twice with HBSS buffer, and after cell counting, the cells were diluted with HBSS buffer to 2×10⁶ cells per ml, and 1% goat serum blocking solution was added, the percentage being the mass percentage. It was incubated on ice for 30 minutes, and then washed twice with HBSS buffer by centrifugation. The collected cells were suspended in FACS buffer (HBSS containing 1% BSA, the percentage was the mass percentage) to 2×10⁶ cells/mL, and 100 μl per well was added to a 96-well FACS reaction plate. The purified 4-1BB antibody test sample obtained in Example 2 was added, 100 microliters per well and incubated on ice for 2 hours. […] It was washed three times with FACS buffer by centrifugation, and 100 μl of fixative [4% (v/v) paraformaldehyde] per well was added to suspend cells, and washed twice with FACS buffer after 10 minutes by centrifugation. The cells were suspended with 100 microliters of FACS buffer, and the results were detected and analyzed with FACS (FACS Calibur, purchased from BD).

[2] = target: T1, human 4-1BB, full length, on …; assay: FACS, CHOK1-h4-1BB cells; Ab 0.00013 ug/ml
From the text: as §1

[3] = target: T1, human 4-1BB, full length, on …; assay: FACS, CHOK1-h4-1BB cells; Ab 0.4 ug/ml
From the text: as §1

[4] = target: T1, human 4-1BB, full length, on …; assay: FACS, CHOK1-h4-1BB cells; Ab 0.016 ug/ml
From the text: as §1

[5] = target: T2, monkey 4-1BB on CHOK1 cells (monkey); assay: FACS, CHOK1-c4-1BB cells; Ab 0.0032 ug/ml
T2 construct: whole, on cells; also called CHOK1-c4-1BB
From the text: as §1

[6] = target: T2, monkey 4-1BB on CHOK1 cells; assay: FACS, CHOK1-c4-1BB cells; Ab 2 ug/ml
From the text: as §1

[7] = target: T1, human 4-1BB, full length, on …; assay: FACS, CHOK1-h4-1BB cells; Ab 0.00064 ug/ml
From the text: as §1

[8] = target: T2, monkey 4-1BB on CHOK1 cells; assay: FACS, CHOK1-c4-1BB cells; Ab 0.00013 ug/ml
From the text: as §1

[9] = target: T2, monkey 4-1BB on CHOK1 cells; assay: FACS, CHOK1-c4-1BB cells; Ab 0.08 ug/ml
From the text: as §1

[10] = target: T1, human 4-1BB, full length, on …; assay: FACS, CHOK1-h4-1BB cells; Ab 0.08 ug/ml
From the text: as §1

[11] = target: T1, human 4-1BB, full length, on …; assay: FACS, CHOK1-h4-1BB cells; Ab 2 ug/ml
From the text: as §1

[12] = target: T2, monkey 4-1BB on CHOK1 cells; assay: FACS, CHOK1-c4-1BB cells; Ab 0.00064 ug/ml
From the text: as §1

[13] = target: T2, monkey 4-1BB on CHOK1 cells; assay: FACS, CHOK1-c4-1BB cells; Ab 0.016 ug/ml
From the text: as §1

[14] = target: T1, human 4-1BB, full length, on …; assay: FACS, CHOK1-h4-1BB cells; Ab 0.0032 ug/ml
From the text: as §1

[15] = target: T2, monkey 4-1BB on CHOK1 cells; assay: FACS, CHOK1-c4-1BB cells; Ab 10 ug/ml
From the text: as §1

[16] = target: T2, monkey 4-1BB on CHOK1 cells; assay: FACS, CHOK1-c4-1BB cells; Ab 0.4 ug/ml
From the text: as §1

[17] = target: T3, hFc-tagged human 4-1BB extracellular domain protein (4-1BB-hFc) (human, UniProt Q07011 24-186, limits assumed); assay: ELISA: 4-1BB-hFc coated at 0.5 µg/mL, his-muCD8a-4-1BBL titrated, detection by biotin anti-mouse CD8a and streptavidin-HRP, OD450
T3 construct: also called immunogen A; 4-1BB^ECD-hFc; not shown: human IgG Fc fragment (hFc) of the pCpC vector

T1 sequence (Q07011 24-255): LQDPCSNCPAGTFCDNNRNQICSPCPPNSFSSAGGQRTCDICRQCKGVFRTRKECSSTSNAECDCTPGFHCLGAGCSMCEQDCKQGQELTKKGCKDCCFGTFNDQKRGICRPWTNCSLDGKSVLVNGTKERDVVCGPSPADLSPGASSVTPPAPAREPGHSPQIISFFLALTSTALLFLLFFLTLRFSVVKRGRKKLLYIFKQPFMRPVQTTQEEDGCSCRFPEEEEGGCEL

Row | average fluorescence intensity [1] [MFI] | average fluorescence intensity [2] [MFI] | average fluorescence intensity [3] [MFI] | average fluorescence intensity [4] [MFI] | average fluorescence intensity [5] [MFI] | average fluorescence intensity [6] [MFI] | average fluorescence intensity [7] [MFI] | average fluorescence intensity [8] [MFI] | average fluorescence intensity [9] [MFI] | average fluorescence intensity [10] [MFI] | average fluorescence intensity [11] [MFI] | average fluorescence intensity [12] [MFI] | average fluorescence intensity [13] [MFI] | average fluorescence intensity [14] [MFI] | average fluorescence intensity [15] [MFI] | average fluorescence intensity [16] [MFI] | EC50 (read off the curve) [17] [µg/mL] | Binder
1 | 458 | 2 | 154 | 12.7 | 5.4 | 479 | 2.5 | 2.2 | 51.1 | 43.1 | 390 | 2.9 | 15.2 | 4.6 | 552 | 204 | – | 100F3C4 (antibody, V domains shown) VH: QVQLQESGPGLVKPSGTLSLTCAVSGGSISSSNWWSWVRQPPGKGLEWIGEIYHSGSTNYNPSLKSRVTMSVDKSKNQFSLELRSVTAADTAVYYCARDAVDAYYYYYGMDVWGQGTTVTVSS VL: DIQLTQSPSFLSASVGDRVTITCRASQGISSYLAWYQQKPGKAPKLLIYAASTLQSGVPSRFSGSGSGTEFTLTISSLQPEDFATYYCQHLNSYPFTFGPGTKVDLK
2 | – | – | – | – | – | – | – | – | – | – | – | – | – | – | – | – | ~0.03 | his-muCD8a-4-1BBL^ECD fusion protein (ligand, UniProt P01731 28-194, looked up, also called 4-1BB ligand protein; not shown: his-tag on the N side) KPQAPELRIFPKKMDAELGQKVDLVCEVLGSVSQGCSWLFQNSSSKLPQPTFVVYMASSHNKITWDEKLNSSKLFSAMRDTNNKYVLTLNKFSKENEGYYFCSVISNSVMYFSSVVPVLQKVNSTTTKPVLRTPSPVHPTGTSQPQRPEDCRPRGSVKGTGLDFACDREGPELSPDDPAGLLDLRQGMFAQLVAQNVLLIDGPLSWYSDPGLAGVSLTGGLSYKEDTKELVVAKAGVYYVFFQLELRRVVAGEGSGSVSLALHLQPLRSAAGAAALALTVDLPPASSEARNSAFGFQGRLLHLSAGQRLGVHLHTEARARHAWQLTQGATVLGLFRVTPEIPAGLPSPRSE
